Residue numbers refer to the chain shown, from its start.
B1: ARE-1 (dsDNA)
DNA 1: CCGGATCCATGGTTGCTGACTAATTGTTATCCTCTAGAGTCGACC
DNA 2: GGTCGACTCTAGAGGATAACAATTAGTCAGCAACCATGGATCCGG
B2: ARE-2 (dsDNA)
DNA 1: B1 DNA 1 with T27G, A29C
DNA 2: B1 DNA 2 with T17G, A19C

How the values were obtained:
[1] = target: T1, GCN4 (222-281), bZIP DNA-binding domain (UniProt P03069 P03069:222-281); experiment: EMSA; bound near saturation at 200 nM GCN4; 10 mM bisTris pH 7.0, 100 mM NaCl, 1 mM DTT, 1 mM EDTA, 50 ug/mL poly(dI-dC), 22 C; inhibited by polyamides 3, 5 and 13, not by 1 or 4; conditions: protein: synthetic; tags: none; prepared by solid phase peptide synthesis; chain copies: 2 (inferred); label: 5'-32P
T1 sequence (P03069 222-281, one chain of several): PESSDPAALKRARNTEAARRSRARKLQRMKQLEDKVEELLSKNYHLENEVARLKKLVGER
Procedure: (§1) For gel mobility shifts, polyamide was incubated with radiolabeled synthetic DNA duplex (10 kcpm) in 40 µL reaction volumes of bisTris (10 mM, pH 7.0), NaCl (100 mM), DTT (1 mM), EDTA (1 mM), and poly(dI-dC)·poly(dI-dC) (50 µg/mL) for 16 hours at 22° C. (20 mM MOPS, pH 7.0, 140 mM KCl, 10 mM NaCl, 1 mM MgCl_2, 1 mM spermine was used to model ionic conditions in vivo). GCN4 (222–281) was added and equilibrated for 30 minutes. Loading buffer (15% Ficoll, 0.025% bromophenol blue) (10 µL) was added and 10 µL was immediately loaded onto a running 8% (29:1, acrylamide:bis-acrylamide) polyacrylamide gel (0.5×TBE, 280 V, 0.8 mm, 13 cm). Sufficient separation of the free DNA and the DNA·GCN4 (222–281) complexes was achieved within 45 minutes. Gels were dried and exposed to a storage phosphor screen (Molecular Dynamics) (Johnston, et al. (1990) *Electrophoresis* 11, 355).
(§2) ImPyPyPy-γ-PyPyPyPy-β-polyamides (1 and 3) target the six base pair 5'-TGTTAT-3' site adjacent to the GCN4 binding site of ARE-1 (FIG. 6). ImImPyPy-γ-ImPyPyPy-β-polyamides (2 and 4) were designed to bind 5'-TGGTCT-3' adjacent to the GCN4 site in ARE-2 (FIG. 6).
(§3) The ability of polyamides to inhibit GCN4 (222–281) binding was evaluated using the gel mobility shift assay. […]

[2] = target: T1, GCN4 (222-281), bZIP DNA-binding domain; experiment: EMSA; bound near saturation at 200 nM GCN4; same buffer, 22 C; inhibited by matched polyamides 4 and 6, not by 2 or 3; conditions: protein: synthetic; tags: none; prepared by solid phase peptide synthesis; chain copies: 2 (inferred); label: 5'-32P
Procedure: as §1, §2, §3

Binder	binding result [1]	binding result [2]
B1	binds	–
B2	–	binds
